Assay results: the supplement of paper PMC5998384

How the values were obtained:
HeLa Kyoto [1] = assay: solubility in G1/S (NP-40 vs SDS abundance) (log2 ratio); higher = more soluble; conditions: cell cycle stage: G1/S
HeLa Kyoto [2] = assay: solubility change mitosis vs G1/S (difference of NP-40 vs SDS log2 ratios) (log2 ratio difference); higher = more soluble in mitosis
HeLa Kyoto [3] = assay: thermal stability score vs G1/S (z-score of summed log2 fold changes over temperatures); higher = more thermally stable than in G1/S
[4] = cell cycle stage: early G1 (4.5 h after nocodazole release)
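Wherever solubility change mitosis vs G1/S (difference of NP-40 vs SDS log2 ratios) is given: synchronized HeLa Kyoto cells (double thymidine block for G1/S, nocodazole release for mitosis), protein amounts in NP-40 versus SDS lysates quantified by mass spectrometry, three biological replicates.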
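Wherever solubility in G1/S (NP-40 vs SDS abundance) is given: HeLa Kyoto cells arrested at G1/S by double thymidine block, proteins quantified by TMT10plex mass spectrometry in mild NP-40 versus SDS extracts, three biological replicates.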
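Wherever thermal stability score vs G1/S (z-score of summed log2 fold changes over temperatures) is given: synchronized HeLa Kyoto cells, proteins quantified by TMT10plex mass spectrometry, three biological replicates, mitosis taken 0.5 h after nocodazole release, G1/S directly after double thymidine block.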

Row | Sequence | solubility in G1/S (log2) (HeLa Kyoto [1]) | solubility change mitosis (log2) (HeLa Kyoto [2]) | thermal stability score (HeLa Kyoto [3]; [4]) | thermal stability score (HeLa Kyoto [3]; cell cycle stage: mitosis)
1 | MARTTSQLYDAVPIQSSVVLCSCPSPSMVRTQTESSTPPGIPGGSRQGPAMDGTAAEPRPGAGSLQHAQPPPQPRKKRPEDFKFGKILGEGSFSTVVLARELATSREYAIKILEKRHIIKENKVPYVTRERDVMSRLDHPFFVKLYFTFQDDEKLYFGLSYAKNGELLKYIRKIGSFDETCTRFYTAEIVSALEYLHGKGIIHRDLKPENILLNEDMHIQITDFGTAKVLSPESKQARANSFVGTAQYVSPELLTEKSACKSSDLWALGCIIYQLVAGLPPFRAGNEYLIFQKIIKLEYDFPEKFFPKARDLVEKLLVLDATKRLGCEEMEGYGPLKAHPFFESVTWENLHQQTPPKLTAYLPAMSEDDEDCYGNYDNLLSQFGCMQVSSSSSSHSLSASDTGLPQRSGSNIEQYIHDLDSNSFELDLQFSEDEKRLLLEKQAGGNPWHQFVENNLILKMGPVDKRKGLFARRRQLLLTEGPHLYYVDPVNKVLKGEIPWSQELRPEAKNFKTFFVHTPNRTYYLMDPSGNAHKWCRKIQEVWRQRYQSHPDAAVQ [PDPK1] | 0.156 | -0.222 | 1.38 | 0.777
2 | MASAAVESFVTKQLDLLELERDAEVEERRSWQENISLKELQSRGVCLLKLQVSSQRTGLYGRLLVTFEPRRYGSAAALPSNSFTSGDIVGLYDAANEGSQLATGILTRVTQKSVTVAFDESHDFQLSLDRENSYRLLKLANDVTYRRLKKALIALKKYHSGPASSLIEVLFGRSAPSPASEIHPLTFFNTCLDTSQKEAVLFALSQKELAIIHGPPGTGKTTTVVEIILQAVKQGLKVLCCAPSNIAVDNLVERLALCKQRILRLGHPARLLESIQQHSLDAVLARSDSAQIVADIRKDIDQVFVKNKKTQDKREKSNFRNEIKLLRKELKEREEAAMLESLTSANVVLATNTGASADGPLKLLPESYFDVVVIDECAQALEASCWIPLLKARKCILAGDHKQLPPTTVSHKAALAGLSLSLMERLAEEYGARVVRTLTVQYRMHQAIMRWASDTMYLGQLTAHSSVARHLLRDLPGVAATEETGVPLLLVDTAGCGLFELEEEDEQSKGNPGEVRLVSLHIQALVDAGVPARDIAVVSPYNLQVDLLRQSLVHRHPELEIKSVDGFQGREKEAVILSFVRSNRKGEVGFLAEDRRINVAVTRARRHVAVICDSRTVNNHAFLKTLVEYFTQHGEVRTAFEYLDDIVPENYSHENSQGSSHAATKPQGPATSTRTGSQRQEGGQEAAAPARQGRKKPAGKSLASEAPSQPSLNGGSPEGVESQDGVDHFRAMIVEFMASKKMQLEFPPSLNSHDRLRVHQIAEEHGLRHDSSGEGKRRFITVSKRAPRPRAALGPPAGTGGPAPLQPVPPTPAQTEQPPREQRGPDQPDLRTLHLERLQRVRSAQGQPASKEQQASGQQKLPEKKKKKAKGHPATDLPTEEDFEALVSAAVKADNTCGFAKCTAGVTTLGQFCQLCSRRYCLSHHLPEIHGCGERARAHARQRISREGVLYAGSGTKNGSLDPAKRAQLQRRLDKKLSELSNQRTSRRKERGT [IGHMBP2] | -0.73 | 0.296 | 0.859 | 0.156
3 | MASADKNGGSVSSVSSSRLQSRKPPNLSITIPPPEKETQAPGEQDSMLPEGFQNRRLKKSQPRTWAAHTTACPPSFLPKRKNPAYLKSVSLQEPRSRWQESSEKRPGFRRQASLSQSIRKGAAQWFGVSGDWEGQRQQWQRRSLHHCSMRYGRLKASCQRDLELPSQEAPSFQGTESPKPCKMPKIVDPLARGRAFRHPEEMDRPHAPHPPLTPGVLSLTSFTSVRSGYSHLPRRKRMSVAHMSLQAAAALLKGRSVLDATGQRCRVVKRSFAFPSFLEEDVVDGADTFDSSFFSKEEMSSMPDDVFESPPLSASYFRGIPHSASPVSPDGVQIPLKEYGRAPVPGPRRGKRIASKVKHFAFDRKKRHYGLGVVGNWLNRSYRRSISSTVQRQLESFDSHRPYFTYWLTFVHVIITLLVICTYGIAPVGFAQHVTTQLVLRNKGVYESVKYIQQENFWVGPSSIDLIHLGAKFSPCIRKDGQIEQLVLRERDLERDSGCCVQNDHSGCIQTQRKDCSETLATFVKWQDDTGPPMDKSDLGQKRTSGAVCHQDPRTCEEPASSGAHIWPDDITKWPICTEQARSNHTGFLHMDCEIKGRPCCIGTKGSCEITTREYCEFMHGYFHEEATLCSQVHCLDKVCGLLPFLNPEVPDQFYRLWLSLFLHAGVVHCLVSVVFQMTILRDLEKLAGWHRIAIIFILSGITGNLASAIFLPYRAEVGPAGSQFGLLACLFVELFQSWPLLERPWKAFLNLSAIVLFLFICGLLPWIDNIAHIFGFLSGLLLAFAFLPYITFGTSDKYRKRALILVSLLAFAGLFAALVLWLYIYPINWPWIEHLTCFPFTSRFCEKYELDQVLH [RHBDF2] | -0.177 | 0.063 | -2.24 | -2.01
4 | MASPRASRWPPPLLLLLLPLLLLPPAAPGTRDPPPSPARRALSLAPLAGAGLELQLERRPEREPPPTPPRERRGPATPGPSYRAPEPGAATQRGPSGRAPRGGSADAAWKHWPESNTEAHVENITFYQNQEDFSTVSSKEGVMVQTSGKSHAASDAPENLTLLAETADARGRSGSSSRTNFTILPVGYSLEIATALTSQSGNLASESLHLPSSSSEFDERIAAFQTKSGTASEMGTERAMGLSEEWTVHSQEATTSAWSPSFLPALEMGELTTPSRKRNSSGPDLSWLHFYRTAASSPLLDLSSSSESTEKLNNSTGLQSSSVSQTKTMHVATVFTDGGPRTLRSLTVSLGPVSKTEGFPKDSRIATTSSSVLLSPSAVESRRNSRVTGNPGDEEFIEPSTENEFGLTSLRWQNDSPTFGEHQLASSSEVQNGSPMSQTETVSRSVAPMRGGEITAHWLLTNSTTSADVTGSSASYPEGVNASVLTQFSDSTVQSGGSHTALGDRSYSESSSTSSSESLNSSAPRGERSIAGISYGQVRGTAIEQRTSSDHTDHTYLSSTFTKGERALLSITDNSSSSDIVESSTSYIKISNSSHSEYSSFFHAQTERSNISSYDGEYAQPSTESPVLHTSNLPSYTPTINMPNTSVVLDTDAEFVSDSSSSSSSSSSSSSSGPPLPLPSVSQSHHLFSSILPSTRASVHLLKSTSDASTPWSSSPSPLPVSLTTSTSAPLSVSQTTLPQSSSTPVLPRARETPVTSFQTSTMTSFMTMLHSSQTADLKSQSTPHQEKVITESKSPSLVSLPTESTKAVTTNSPLPPSLTESSTEQTLPATSTNLAQMSPTFTTTILKTSQPLMTTPGTLSSTASLVTGPIAVQTTAGKQLSLTHPEILVPQISTEGGISTERNRVIVDATTGLIPLTSVPTSAKEMTTKLGVTAEYSPASRSLGTSPSPQTTVVSTAEDLAPKSATFAVQSSTQSPTTVSSSASVNSCAVNPCLHNGECVADNTSRGYHCRCPPSWQGDDCSVDVNECLSNPCPSTAMCNNTQGSFICKCPVGYQLEKGICNLVRTFVTEFKLKRTFLNTTVEKHSDLQEVENEITKTLNMCFSALPSYIRSTVHASRESNAVVISLQTTFSLASNVTLFDLADRMQKCVNSCKSSAEVCQLLGSQRRIFRAGSLCKRKSPECDKDTSICTDLDGVALCQCKSGYFQFNKMDHSCRACEDGYRLENETCMSCPFGLGGLNCGNPYQLITVVIAAAGGGLLLILGIALIVTCCRKNKNDISKLIFKSGDFQMSPYAEYPKNPRSQEWGREAIEMHENGSTKNLLQMTDVYYSPTSVRNPELERNGLYPAYTGLPGSRHSCIFPGQYNPSFISDESRRRDYF [HEG1] | -0.231 | -0.0254 | -0.763 | -1.15
5 | MATPDVSVHMEEVVVVTTPDTAVDGSGVEGVKTVLVTTNLAPHGGDLTEDNMETENAAAAAAAAFTASSQLKEAVLVKMAEEGENLEAEIVYPITCGDSRANLIWRKFVCPGINVKCVQYDEHVISPKEFVHLAGKSTLKDWKRAIRMNGIMLRKIMDSGELDFYQHDKVCSNTCRSTKIDLSGARVSLSSPTSAEYIPLTPAAADVNGSPATITIETCEDPGDWTAAIGDDTFTFWRGLKDAGLLDEVIQEFHQELVETMRGLQQRVQDPPLQLRDAVLLNNIVQNFGMLDLVKKVLASHKCQMDRSREQYARDLAALEQQCDEHRRRAKELKHKSQHLSNVLMTLTPVSLPPPVKRPRLARATSGPAAMASQVLTQSAQLALGPGVPVPQLTSVPLGKVVSTLPSTVLGKGSLQAPPASSPASPLLGGYTVLASSGSTYPSTVEIHPDASSLTVLSTAAVQDGSTVFKVVSPLQLLTLPGLGPTLQNVAQASPGSSTIVTVPAGAAPGPEEHTATIEVAAMAEDHERK [GMEB2] | -0.0692 | 0.0606 | 0.359 | 0.761
